The text below walks through data of publication PMC13507205, “FAIMS-GPF XL-MS: crosslinking-mass spectrometry based on gas-phase fractionation” (Nature Communications, 2026).

The test deals with T1, CDK7 kinase fused to a C-terminal Strep-tag II sequence (UniProt P50613 1-346).
T1 construct: No cleavage of the tag is described; The theoretical mass of the trimer (113,879 Da with one phosphorylation) would fit whole chains; source: Sf21 cells, baculovirus, purified as the CAK complex (Strep-Tactin XT, eluted with biotin)
T1 sequence (P50613 whole entry, the tested form may be a part): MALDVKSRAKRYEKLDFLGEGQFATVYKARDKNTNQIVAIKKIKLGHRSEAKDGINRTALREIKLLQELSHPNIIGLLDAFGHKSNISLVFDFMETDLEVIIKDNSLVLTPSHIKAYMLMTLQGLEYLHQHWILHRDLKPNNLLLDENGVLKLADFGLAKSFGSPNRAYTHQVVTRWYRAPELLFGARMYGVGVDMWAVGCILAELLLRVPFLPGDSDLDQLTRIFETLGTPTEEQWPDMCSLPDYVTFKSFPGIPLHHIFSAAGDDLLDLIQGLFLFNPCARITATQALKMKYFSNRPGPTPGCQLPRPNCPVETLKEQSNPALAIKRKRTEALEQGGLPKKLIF
The test is described as follows: cross-linking; purified CAK complex (co-expressed, co-purified) at 0.7 mg/mL in 20 mM Hepes pH 8, 150 mM KCl, 1 mM EDTA, 1 mM DTT, 50 mM biotin; DSSO at 200 molar excess, 45 min, RT; three replicates; 4-CV FAIMS-GPF nLC-MS/MS; XLs kept if in at least 2 of 3 replicates. The following applies: both partners purified.

B1: MAT1 (natural protein, UniProt P51948 1-309, looked up)
chain: MDDQGCPRCKTTKYRNPSLKLMVNVCGHTLCESCVDLLFVRGAGNCPECGTPLRKSNFRVQLFEDPTVDKEVEIRKKVLKIYNKREEDFPSLREYNDFLEEVEEIVFNLTNNVDLDNTKKKMEIYQKENKDVIQKNKLKLTREQEELEEALEVERQENEQRRLFIQKEEQLQQILKRKNKQAFLDELESSDLPVALLLAQHKDRSTQLEMQLEKPKPVKPVTFSTGIKMGQHISLAPIHKLEEALYEYQPLQIETYGPHVPELEMLGRLGYLNHVRAASPQDLAGGYTSSLACHRALQDAFSGLFWQPS
notes: MAT1, subunit of the CAK heterotrimer; source: Sf21 cells, baculovirus, purified as the CAK complex (Strep-Tactin XT, eluted with biotin)
As for B1, the binding result is “binds”.
